Legend:
[1] = target: superfolder Cherry (sfCherry); experiment: native gel or EMSA; native polyacrylamide gel at ∼10 mg/ml protein concentration
[2] = target: superfolder Cherry (sfCherry); experiment: crystal structure; sfCherry alone, 2.0 Å, space group P21, eight copies in the asymmetric unit; 0.1 M SPG buffer pH 5.0, 25% PEG 1500

superfolder Cherry (sfCherry) was tested, and the percent dimer [1] was 50%, the stoichiometry N [1] was 2 and the stoichiometry N [2] was 2.

Reference: PMC3852656
